We go through one molecule from PMC8786823, “Flanking sequences influence the activity of TET1 and TET2 methylcytosine dioxygenases and affect genomic 5hmC patterns”.

The target in the data set is T1, UHRF2 SRA domain (human, UniProt Q96PU4 419-648).
T1 sequence: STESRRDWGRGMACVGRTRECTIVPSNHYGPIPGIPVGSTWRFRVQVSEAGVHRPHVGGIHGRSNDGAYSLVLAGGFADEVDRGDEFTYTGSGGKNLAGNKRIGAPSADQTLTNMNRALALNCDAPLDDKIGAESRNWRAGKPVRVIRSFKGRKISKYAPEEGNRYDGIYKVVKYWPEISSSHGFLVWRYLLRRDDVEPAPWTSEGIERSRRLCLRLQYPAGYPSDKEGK
Kind of data set: EMSA; 0.5 uM DNA; preferred over mC and unmodified DNA in the same context; 20 mM HEPES pH 7.9, 100 mM NaCl, 2 mM MgCl2, 2 mM DTT, 0.1% NP-40, 5% glycerol; 30 min on ice; 6% PAGE in 0.25X TBE, GelRed stain. As to conditions: protein: recombinant; tags: His; blunt. For orientation: In EMSA bound probe runs differently from free probe, usually more slowly.

B1: TET-disf-hmC/TET-disf-rev (dsDNA)
DNA 1: GAAGCTGGGACGCGCGCCGGGAGAGTGCAA
DNA 2: TTGCACTCTCCCGGCGCGCGTCCCAGCTTC
modifications: 5hmC at position 15 of strand 1 (hemihydroxymethylated CpG)
With B1, the binding result is “binds”.
